{"source": "paper PMC11894533", "about": "“A virulent milRNA of Fusarium oxysporum f. sp. cubense impairs plant resistance by targeting banana AP2 transcription factor coding gene MaPTI6L”", "biological_target": "MaPTI6L (Musa acuminata (Cavendish group cv. …, UniProt A0A804I776 1-300))", "sequence (A0A804I776 entry or part of it)": "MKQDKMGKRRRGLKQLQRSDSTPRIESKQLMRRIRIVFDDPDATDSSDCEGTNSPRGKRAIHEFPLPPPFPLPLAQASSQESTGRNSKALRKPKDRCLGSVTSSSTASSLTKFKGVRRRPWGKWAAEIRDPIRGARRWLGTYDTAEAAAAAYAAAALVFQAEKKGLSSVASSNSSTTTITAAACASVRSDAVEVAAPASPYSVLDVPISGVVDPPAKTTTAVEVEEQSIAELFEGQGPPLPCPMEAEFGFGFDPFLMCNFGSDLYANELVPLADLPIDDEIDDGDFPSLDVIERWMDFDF", "experiment": "EMSA; EMSA Kit (Beyotime) protocol; buffer, salt, pH and temperature not stated", "conditions": "protein: recombinant; tags: MBP; label: FAM", "data": [{"binder": "MaEDS1 promoter GCC-box mutant probe (dsDNA) DNA 1: CCAACTCCTCCTCTCTCTGGACAAAAAACACAAACTCGTCTTGAAAACTCCGCGACAAA DNA 2: TTTGTCGCGGAGTTTTCAAGACGAGTTTGTGTTTTTTGTCCAGAGAGAGGAGGAGTTGG", "values": [{"measurement": "binding result", "result": "no binding"}]}]}
